This is an account of results in patent US20240309103A1 (Regeneron, published 2024).

Assay [1] concerns the target T1, mouse NPR1 extracellular domain expressed with a C-terminal myc-myc-hexahistidine (mNPR1-MMH) (mouse, UniProt P18293 29-469). The experiment in a line: SPR, mAb captured, 37 C. As to the method: (§1) Equilibrium dissociation constant (KD) for different NPR1 reagents binding to purified anti-NPR1 monoclonal antibodies (mAbs) were determined using a real-time surface plasmon resonance based Biacore 4000 biosensor. All binding studies were performed in 10 mM HEPES, 150 mM NaCl, 3 mM EDTA, and 0.05% v/v Surfactant Tween-20, pH 7.4 (HBS-ET) running buffer at 25° C. and 37° C. The Biacore CM5 sensor chip surface was first derivatized by amine coupling with either mouse anti-human Fc specific mAb (GE Healthcare, #BR100839) or goat anti-human Fcy specific polyclonal antibody (Jackson ImmunoResearch Laboratories, #BR-1008-39) to capture anti-NPR1 mAbs.
Background: SPR reads the build-up and loss of mass on a sensor chip optically.
Target sequence in this assay (P18293 other isoform, or with tags, fused parts or gaps): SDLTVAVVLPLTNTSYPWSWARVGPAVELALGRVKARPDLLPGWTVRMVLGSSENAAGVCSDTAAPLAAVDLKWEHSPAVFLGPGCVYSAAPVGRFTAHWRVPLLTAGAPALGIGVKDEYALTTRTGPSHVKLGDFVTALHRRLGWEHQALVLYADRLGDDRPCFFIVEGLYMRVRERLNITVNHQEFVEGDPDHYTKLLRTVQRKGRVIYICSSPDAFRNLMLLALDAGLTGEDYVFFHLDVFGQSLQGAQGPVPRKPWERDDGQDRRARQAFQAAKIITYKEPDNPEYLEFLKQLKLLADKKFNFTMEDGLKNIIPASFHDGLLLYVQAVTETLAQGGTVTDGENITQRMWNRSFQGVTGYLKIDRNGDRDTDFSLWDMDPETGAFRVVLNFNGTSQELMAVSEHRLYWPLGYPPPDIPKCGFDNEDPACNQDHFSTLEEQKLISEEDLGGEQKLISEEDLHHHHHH

The target of assay [2] is T2, human NPR1 extracellular domain expressed with a C-terminal mouse IgG2a (hNPR1-mFc) (human).
T2 construct: also called hNPR1-Fc; human NPR1 dimer
T2 chain: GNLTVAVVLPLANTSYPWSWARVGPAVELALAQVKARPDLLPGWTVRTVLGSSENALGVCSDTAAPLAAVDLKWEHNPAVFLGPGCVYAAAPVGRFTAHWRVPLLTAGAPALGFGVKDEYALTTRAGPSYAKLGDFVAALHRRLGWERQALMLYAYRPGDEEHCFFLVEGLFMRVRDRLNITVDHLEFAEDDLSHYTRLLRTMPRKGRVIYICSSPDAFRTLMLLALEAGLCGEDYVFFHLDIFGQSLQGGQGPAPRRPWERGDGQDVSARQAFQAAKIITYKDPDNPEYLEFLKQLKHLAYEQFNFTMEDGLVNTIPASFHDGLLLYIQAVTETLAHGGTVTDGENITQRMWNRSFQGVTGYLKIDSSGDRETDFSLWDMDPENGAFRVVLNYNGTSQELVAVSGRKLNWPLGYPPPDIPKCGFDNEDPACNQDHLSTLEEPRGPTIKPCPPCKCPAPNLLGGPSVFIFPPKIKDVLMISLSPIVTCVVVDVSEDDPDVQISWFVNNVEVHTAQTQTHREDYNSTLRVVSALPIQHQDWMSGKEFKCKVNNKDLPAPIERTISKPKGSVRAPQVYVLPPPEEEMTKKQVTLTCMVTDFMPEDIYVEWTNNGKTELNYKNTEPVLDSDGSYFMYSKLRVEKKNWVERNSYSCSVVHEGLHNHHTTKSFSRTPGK
Put plainly: SPR, mAb captured, 37 C. As to the method: as §1

In assay [3] the target is T3, monkey NPR1 extracellular domain expressed with a C-terminal myc-myc-hexahistidine (mfNPR1-MMH) (monkey, UniProt P16066 33-473 (human entry)).
T3 construct: also called monomeric monkey NPR1
T3 chain: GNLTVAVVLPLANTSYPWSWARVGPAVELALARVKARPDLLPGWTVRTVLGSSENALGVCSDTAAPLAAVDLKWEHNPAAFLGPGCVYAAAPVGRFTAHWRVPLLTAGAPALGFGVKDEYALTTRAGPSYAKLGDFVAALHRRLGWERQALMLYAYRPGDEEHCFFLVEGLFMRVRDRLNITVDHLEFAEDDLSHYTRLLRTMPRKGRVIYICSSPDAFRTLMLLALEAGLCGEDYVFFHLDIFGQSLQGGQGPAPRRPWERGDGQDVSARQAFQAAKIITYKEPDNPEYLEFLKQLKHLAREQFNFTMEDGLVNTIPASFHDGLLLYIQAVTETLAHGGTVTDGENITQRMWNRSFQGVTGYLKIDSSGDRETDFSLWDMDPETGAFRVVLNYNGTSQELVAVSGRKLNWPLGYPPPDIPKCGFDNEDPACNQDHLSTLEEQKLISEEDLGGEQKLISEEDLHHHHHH
The experiment in a line: SPR, mAb captured, 37 C. As to the method: as §1

The target of assay [4] is T4, human NPR1 extracellular domain expressed with a C-terminal myc-myc-hexahistidine (hNPR1-MMH) (human, UniProt P16066 33-473).
T4 construct: also called hNPR.mmh; monomeric human NPR1
Put plainly: SPR, mAb captured, 37 C. As to the method: as §1
Target sequence in this assay (P16066 other isoform, or with tags, fused parts or gaps): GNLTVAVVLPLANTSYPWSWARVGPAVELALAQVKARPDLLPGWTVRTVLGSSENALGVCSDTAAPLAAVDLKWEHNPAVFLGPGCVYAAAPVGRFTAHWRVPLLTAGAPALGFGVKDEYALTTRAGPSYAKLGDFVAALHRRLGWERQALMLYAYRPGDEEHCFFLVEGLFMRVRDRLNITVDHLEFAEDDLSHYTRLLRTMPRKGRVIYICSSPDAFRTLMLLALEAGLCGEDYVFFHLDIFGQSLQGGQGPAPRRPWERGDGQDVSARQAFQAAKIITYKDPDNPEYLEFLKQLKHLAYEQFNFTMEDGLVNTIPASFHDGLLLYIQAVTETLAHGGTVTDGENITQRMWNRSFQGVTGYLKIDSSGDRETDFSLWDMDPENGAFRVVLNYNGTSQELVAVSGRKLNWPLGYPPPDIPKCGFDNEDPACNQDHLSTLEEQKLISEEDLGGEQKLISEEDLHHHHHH

The target of assay [5] is T5, mouse NPR1 extracellular domain expressed with a C-terminal mouse IgG2a (mNPR1-mFc) (mouse).
T5 chain: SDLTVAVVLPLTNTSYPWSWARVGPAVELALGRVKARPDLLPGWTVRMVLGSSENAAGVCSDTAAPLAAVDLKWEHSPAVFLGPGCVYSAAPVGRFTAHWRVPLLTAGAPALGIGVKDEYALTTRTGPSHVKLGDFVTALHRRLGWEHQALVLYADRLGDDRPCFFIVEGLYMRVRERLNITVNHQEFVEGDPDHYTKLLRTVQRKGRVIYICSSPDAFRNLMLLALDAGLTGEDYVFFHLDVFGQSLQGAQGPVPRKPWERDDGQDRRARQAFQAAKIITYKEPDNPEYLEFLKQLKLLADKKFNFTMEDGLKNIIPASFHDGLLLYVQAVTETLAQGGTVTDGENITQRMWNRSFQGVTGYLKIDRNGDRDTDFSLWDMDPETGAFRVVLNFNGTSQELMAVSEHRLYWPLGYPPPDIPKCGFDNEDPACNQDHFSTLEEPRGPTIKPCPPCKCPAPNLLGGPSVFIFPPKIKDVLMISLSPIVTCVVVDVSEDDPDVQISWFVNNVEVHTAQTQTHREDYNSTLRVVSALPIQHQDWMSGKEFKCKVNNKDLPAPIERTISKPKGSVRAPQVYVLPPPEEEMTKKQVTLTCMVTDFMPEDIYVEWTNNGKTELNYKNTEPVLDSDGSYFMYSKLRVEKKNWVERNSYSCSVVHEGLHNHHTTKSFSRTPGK
The experiment in a line: SPR, Tables 21 to 26. As to the method:
as §1

Assay [6] addresses T1, mouse NPR1 extracellular domain …. Put plainly: SPR, mAb captured, 25 C. As to the method: as §1
Assay [7] deals with T2, human NPR1 extracellular domain …. The experiment in a line: SPR, mAb captured, 25 C. As to the method: as §1
Assay [8] deals with T3, monkey NPR1 extracellular domain …. The experiment in a line: SPR, mAb captured, 25 C. As to the method:
as §1

Assay [9] has as its target T4, human NPR1 extracellular domain …. The experiment in a line: SPR, mAb captured, 25 C. As to the method:
as §1

B1: mAb25497 (antibody, V domains shown)
VH: QVQLVQSGAEVKEPGASVKVSCKASGYTFTDYYIHWVRQAPGQGLEWMGWINLNSGGKNHAQKFQGRVTVTSDTSINTAYIELGRLRGDDTAVYYCSRGGGSHYYYYYHGMDVWGQGTTVTVSS
VL: DIQMTQSPSSLSASVGDRITITCRASHSIDSYLNWYQQKPGKAPKLLIYPASTLQSGVPSRFSGSGSGTDFTLTISSLQPEDSAIYYCQQSYSTPLTFGGGTKVEIK
Turning to B1, the “100 nM Ag Bound (RU)” value came to 0 RU in assay [1]; 43 RU in [2]; 69 RU in assay [3]; 31 RU in [4]; 0 RU in [6]; 49 RU in assay [7]. Also, the “100 nM Ag Bound (RU)” value in [8] is 49 RU; in assay [9], 22 RU. Moreover, the Kd is 7.31 nM in assay [2]; 139 nM in assay [3]; 139 nM in assay [4]; 0.238 nM in assay [7]; 59.8 nM in assay [8]; 52.7 nM in assay [9]. The koff in [2] came to 0.00031 s⁻¹; in assay [3], 0.00384 s⁻¹; in assay [4], 0.00258 s⁻¹; in assay [7] it was 4.83e-05 s⁻¹; in assay [8] it was 0.00226 s⁻¹; in assay [9], 0.00167 s⁻¹. Moreover, the kon in assay [2] stood at 42300 M⁻¹ s⁻¹; in assay [3], 27700 M⁻¹ s⁻¹; in assay [4], 18600 M⁻¹ s⁻¹; in assay [7], 203000 M⁻¹ s⁻¹; in assay [8] it was 37800 M⁻¹ s⁻¹; in assay [9], 31700 M⁻¹ s⁻¹. Besides, the t½ in assay [2] was 37.3 min; in [3], 3 min; in assay [4], 4.5 min; in assay [7], 239 min; in [8], 5.1 min; in [9], 6.9 min. For the same molecule, the binding result in assay [5] is given as “no binding”; in assay [6], “no binding (tested: 100 nM)”.

B2: mAb22805 (antibody, V domains shown)
VH: QVQLVESGGGVVQPGRSLRLSCAASGFTFSTYGMHWVRQAPGKGLEWVALIWNDGSNKYYADSVKGRFTISRDNSKNTLDLQMNSLRAEDTAVYYCARLNTRITGTTNLDYWGQGTLVTVSS
VL: DIQMTQSPSSLSASVGDRVTVSCRASQSIANYLNWYQQKPGKAPNLLIYGAYTLQSGVPSRFRGSGSGTDFTLTISSLQPEDFATYYCQQTYSTPPITFGQGTRLEIK
As for B2, the “100 nM Ag Bound (RU)” value in assay [1] is 1 RU; in [2], 8 RU; in [3] it was 3 RU; in assay [4], 1 RU; in assay [6] it was 0 RU; in [7], 2 RU. Also, the “100 nM Ag Bound (RU)” value in assay [8] and in assay [9] was 0 RU each time. The binding result in [5] is “no binding”; in assay [6], “no binding (tested: 100 nM)”; in [7], “no binding (tested: 100 nM)”; in [8], “no binding (tested: 100 nM)”; in assay [9], “no binding (tested: 100 nM)”.

One may read the Kd as the constant that tells how readily two partners part at equilibrium. The koff is a measure of how fast the partners let go of each other. One may read the kon as the rate constant with which the complex forms. Usually t½ stands for the time in which the quantity being followed falls by half.
